Measured values taken from US20050158362A1, “Polymeric, fiber matrix delivery systems for bioactive compounds” (priority 2000, published 2005).

Experiment: In vitro release of FITC-BSA from the fiber matrix into an infinite sink of 37° C. phosphate buffered saline
Assay type: physicochemical
Details: polylactic glycolic acid fiber matrix
Text: To construct the bioactive compound-loaded matrices, various concentrations of finely ground FITC-BSA were suspended in biodegradable polymer polylactic glycolic acid in 50:50 dimethyl formamide:tetrahydrofuran. Suspensions contained in a glass syringe with a capillary tip were electrospun into approximately 500 nm diameter fibers via an electrostatic based self-assembly process in which a high voltage electric field was generated between the oppositely charged polymer and a metallic collection screen. At a critical voltage the charge overcomes the surface tension of the deformed polymer drop at the needle tip, producing an ultrafine jet. The similarly charged fibers are splayed and during their passage to the screen, the solvent quickly evaporates so that dry fibers accumulate randomly on the screen forming a mesh matrix.
In vitro release of the FITC-BSA into an infinite sink of 37° C. phosphate buffered saline was also measured. This sink mimics in vivo conditions.
A 25% (w/v) solution of polylactic glycolic acid was prepared in a 50:50 mixture of dimethylformamide and tetrahydrofuran. […]
In vitro release of the FITC-BSA into an infinite sink of 37° C. phosphate buffered saline was measured. […] The amount of protein released was measured in the form of fluorescence of the FITC-BSA on a spectrophotofluorometer at an excitation wavelength of 495 nm and an emission wavelength of 513 nm.

For “FITC-BSA: fluorescently labeled bovine serum albumin dispersed between electrospun polylactic glycolic acid fibers of the matrix”, the “in vitro release profile of FITC-BSA” value was “release in the first 24 hours after initiation was dominant” and the “duration of observed in vitro release of FITC-BSA” value (fluorescence readout) was “over 120 hours”.
